From US20210403593A1 (TIZONA THERAPEUTICS, published 2021)
Where a chain is given by its changes, count along the chain named.

B1: 31414 (antibody, human IgG4 S228P, kappa, V domains shown)
VH: QVQLVQSGAEVKKPGASVKVSCKASGYTFKSYEMHWVRQAPGQGLEWMGRINPSVGSTWYAQKFQGRVTMTRDTSTSTVYMELSSLRSEDTAVYYCARGKREGGTEYLRNWGQGTLVTVSS
VL: EIVLTQSPGTLSLSPGERATLSCRASQSVSSSYLAWYQQKPGQAPRLLIYGASSRATGIPDRFSGSGSGTDFTLTISRLEPEDFAVYYCQQYHSYITFGGGTKVEIKR
B2: 31418 (antibody, human IgG4 S228P, kappa, V domains shown)
VH: B1 VH with V55G, N110H
VL: B1 VL with H93Y, S94F
B3: 31873 (antibody, human IgG4 S228P, kappa, V domains shown)
VH: QVQLVQSGAEVKKPGSSVKVSCKASGGTFSKYGISWVRQAPGQGLEWMGSIIPEFGIANYAQKFQGRVTITADESTSTAYMELSSLRSEDTAVYYCARESGGYRDHRLGVWGQGTMVTVSS
VL: EIVMTQSPATLSVSPGERATLSCRASQSVGSNLAWYQQKPGQAPRLLIYGASTRASGIPARFSGSGSGTEFTLTISSLQSEDFAVYYCQQYLLWPLTFGGGTKVEIKR
B4: 31896 (antibody, V domains shown)
VH: QVQLVQSGAEVKKPGSSVKVSCKASGGTFSKLAISWVRQAPGQGLEWMGGIGFGTANYAQKFQGRVTITADESASTAYMELSSLRSEDTAVYYCARGGAKYASTHGMDVWGQGTTVTVSS
VL: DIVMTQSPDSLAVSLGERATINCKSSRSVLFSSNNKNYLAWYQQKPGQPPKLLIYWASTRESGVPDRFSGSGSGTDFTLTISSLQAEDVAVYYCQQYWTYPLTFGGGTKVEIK
B5: 31915 (antibody, human IgG4 S228P, kappa, V domains shown)
VH: B4 VH with K31S, A33P, A74T, T104K, H105W
VL: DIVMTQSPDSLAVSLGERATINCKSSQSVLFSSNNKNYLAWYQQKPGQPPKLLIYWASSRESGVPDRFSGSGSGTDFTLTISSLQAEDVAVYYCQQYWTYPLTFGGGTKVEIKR
B6: 31891 (antibody, human IgG4 S228P, kappa, V domains shown)
VH: B1 VH with T28I, N110V
VL: B1 VL with G51Y, T57Y, S94N, Y95A
B7: 31430 (antibody, human IgG4 S228P, kappa, V domains shown)
VH: B1 VH with V55G, N110H
VL: B1 VL with R24E, S31Y, T57N, Y95A, I96L
B8: 31415 (antibody, human IgG4 S228P, kappa, V domains shown)
VH: B1 VH with K30T, E33Q, V55G, N110S
VL: B1 VL

Biological target: T1, Chimera #4 (Homo sapiens (Human), UniProt P49961 1-510)
T1 construct: Expressed on CHO cells
T1 chain: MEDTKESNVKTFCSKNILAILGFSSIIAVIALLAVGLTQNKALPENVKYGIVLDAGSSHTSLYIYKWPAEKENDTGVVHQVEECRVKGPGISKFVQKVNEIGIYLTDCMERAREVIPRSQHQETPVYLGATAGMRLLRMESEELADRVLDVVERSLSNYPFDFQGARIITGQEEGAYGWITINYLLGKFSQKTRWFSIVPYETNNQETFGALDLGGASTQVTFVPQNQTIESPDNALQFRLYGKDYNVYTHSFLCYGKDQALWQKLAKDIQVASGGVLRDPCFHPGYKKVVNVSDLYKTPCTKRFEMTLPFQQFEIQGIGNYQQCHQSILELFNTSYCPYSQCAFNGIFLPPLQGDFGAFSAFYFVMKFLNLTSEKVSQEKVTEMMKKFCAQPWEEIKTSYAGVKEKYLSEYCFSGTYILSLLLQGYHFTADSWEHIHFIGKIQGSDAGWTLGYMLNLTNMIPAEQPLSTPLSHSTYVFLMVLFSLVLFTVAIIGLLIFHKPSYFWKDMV
Assay: FACS on CHO cells, 15 ug/ml; human M1-S274 + mouse GGV + human L278-V510

| Binder | binding result |
| --- | --- |
| B1 | binds |
| B2 | binds |
| B3 | binds |

Biological target: T2, Chimera #9 (Homo sapiens (Human), UniProt P49961 1-510)
T2 construct: Expressed on CHO cells
T2 chain: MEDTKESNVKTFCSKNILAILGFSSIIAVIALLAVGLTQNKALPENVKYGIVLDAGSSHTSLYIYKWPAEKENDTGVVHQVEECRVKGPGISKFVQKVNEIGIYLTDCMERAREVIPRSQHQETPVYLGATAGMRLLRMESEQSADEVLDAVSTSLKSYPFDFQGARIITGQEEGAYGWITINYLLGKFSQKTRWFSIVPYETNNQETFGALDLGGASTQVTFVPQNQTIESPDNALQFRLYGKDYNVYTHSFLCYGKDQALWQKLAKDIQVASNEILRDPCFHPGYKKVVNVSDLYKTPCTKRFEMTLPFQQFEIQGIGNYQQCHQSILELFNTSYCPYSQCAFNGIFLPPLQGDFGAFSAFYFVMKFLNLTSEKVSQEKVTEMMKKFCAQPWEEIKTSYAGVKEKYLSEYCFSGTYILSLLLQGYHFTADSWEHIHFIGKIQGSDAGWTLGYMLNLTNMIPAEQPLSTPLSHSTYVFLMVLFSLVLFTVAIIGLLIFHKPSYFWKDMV
Assay: FACS on CHO cells, 15 ug/ml; Chimera 2 with human D150 ([..])

| Binder | binding result |
| --- | --- |
| B1 | binds |
| B2 | binds |

biological target: T3, human CD39 (cellular) (human, UniProt P49961 1-510); assay: flow cytometry, 100 nM IgG, MFI on CHO-hCD39 / MFI on parental CHO;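 note: cells exposed to IgG for 30 min on ice in PBS, bound antibody then revealed with a fluorescent goat anti-human IgG secondary (20 min, on ice)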
T3 construct: Same protein on engineered CHO cells and on cells that express it endogenously; also called hCD39; cellular CD39
T3 sequence: T1 chain with G275N, G276E, V277I

| Binder | Cell Binding (FOB) |
| --- | --- |
| B4 | 1040 fold over background |
| B5 | 1090 fold over background |
| B1 | 1240 fold over background |
| B6 | 1030 fold over background |
| B7 | 1220 fold over background |
| B8 | 1170 fold over background |
| B2 | 1080 fold over background |
| B3 | 1320 fold over background |

Biological target: T4, Chimera #10 (Homo sapiens (Human), UniProt P49961 1-510)
T4 construct: Expressed on CHO cells
T4 chain: T2 chain with D150A, S153E
Assay: FACS on CHO cells, 15 ug/ml; Chimera 2 with human E153 ([..])

| Binder | binding result |
| --- | --- |
| B1 | binds |
| B2 | binds |

Biological target: T5, Chimera #2 (human, UniProt P49961 1-510)
T5 construct: Expressed on CHO cells; also called human-mouse Chimera #2
T5 chain: T2 chain with D150A
Assay: FACS on CHO cells; human M1-E142 + mouse Q143-S158 ([..]) + human Y159-V510

| Binder | binding result |
| --- | --- |
| B1 | no binding (tested: 15 ug/ml) |
| B2 | no binding (tested: 15 ug/ml) |

Biological target: T6, cynomolgus macaque (Macaca fascicularis) CD39 (Macaca fascicularis, UniProt P49961 7-510 (human entry))
T6 construct: On engineered CHO cells and on primary cyno B cells and monocytes; also called cyno CD39; cCD39
T6 chain: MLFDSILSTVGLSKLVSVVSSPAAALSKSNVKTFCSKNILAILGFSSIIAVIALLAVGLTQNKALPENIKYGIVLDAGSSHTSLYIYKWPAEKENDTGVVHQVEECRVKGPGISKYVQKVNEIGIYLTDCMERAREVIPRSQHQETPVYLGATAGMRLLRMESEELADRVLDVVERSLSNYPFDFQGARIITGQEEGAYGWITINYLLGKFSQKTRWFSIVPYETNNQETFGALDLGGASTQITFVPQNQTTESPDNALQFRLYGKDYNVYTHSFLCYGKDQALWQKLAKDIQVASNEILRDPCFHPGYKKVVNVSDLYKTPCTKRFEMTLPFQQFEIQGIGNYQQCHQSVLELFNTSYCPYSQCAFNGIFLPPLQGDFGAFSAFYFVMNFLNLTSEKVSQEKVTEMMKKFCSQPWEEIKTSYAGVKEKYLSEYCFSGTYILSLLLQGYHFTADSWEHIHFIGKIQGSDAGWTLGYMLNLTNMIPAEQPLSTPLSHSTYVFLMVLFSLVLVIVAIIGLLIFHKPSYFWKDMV
Assay: flow cytometry, 100 nM IgG, MFI on CHO-cCD39 / MFI on parental CHO;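 note: antibodies bound to the cells for 30 min in PBS, then bound IgG was revealed with a fluorescent goat anti-human IgG secondary antibody, 20 min on ice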

| Binder | Cell Binding (FOB) |
| --- | --- |
| B4 | 4540 fold over background |
| B5 | 4580 fold over background |
| B1 | 3570 fold over background |
| B6 | 4650 fold over background |
| B7 | 3570 fold over background |
| B8 | 3360 fold over background |
| B2 | 3180 fold over background |
| B3 | 5080 fold over background |
